System: Human dermal lymphatic endothelial cells (HDLEC)
Test: Bulk RNA-sequencing, differential gene expression and GO analysis
Format: cell-based
Protocol: Human dermal lymphatic endothelial cells (HDLEC) (single donor, juvenile foreskin, Promocell, C-12216, >95% of the cells are CD31 positive and podoplanin positive) were cultured in Endothelial Cell Media MV2 (EGM-MV2, Promocell, C-22121). NIH3T3 were cultured in Dulbecco's modified Eagle's medium (DMEM, Sigma, D6429) supplemented with 10% fetal bovine serum (FBS, Gibco, 10270-06) and 1% penicillin-streptomycin. Endothelial cells were used at passage 3-6 and human fibroblasts were used at passage 4-7. Cells were cultured at 37° C. in a 5% CO2 incubator. Culture medium was changed 3 times a week, and the cells were passaged ⅓. For collecting conditioned media, NIH3T3 were grown in 10 cm dishes, after reaching confluence, medium was removed and the cells were washed once with PBS. NIH3T3 were cultured overnight in 5 mL reduced serum medium optiMEM (Gibco), the medium was then collected and used for experiments. HDLEC were treated with 50% conditioned media/50% MV2-05% FBS. Total RNA from HDLEC transduced or not with Apelin Lentivector were prepared using the RNeasy mini kit (Qiagen 74106). Total RNA were then subjected to ribosomal-RNA depleted RNA sequencing (RNA-Seq) protocol performed by Genewiz company using Illumina HiSeq, PE 2×150 configuration. Sequence reads were trimmed to remove possible adapter sequences and nucleotides with poor quality using Trimmomatic v.0.36. The trimmed reads were mapped to the Homo sapiens GRCh38 reference genome available on ENSEMBL using the STAR aligner v.2.5.2b. The STAR aligner is a splice aligner that detects splice junctions and incorporates them to help align the entire read sequences. BAM files were generated as a result of this step. Unique gene hit counts were calculated by using feature Counts from the Subread package v.1.5.2. The hit counts were summarized and reported using the gene_id feature in annotation file. Only unique reads that fell within exon regions were counted. Distribution of read counts in libraries were examined before and after normalization. The original read counts were normalized to adjust for various factors such as variations of sequencing yield between samples. These normalized read counts were used to accurately determine differentially expressed genes. Data quality assessments were performed to detect any samples that are not representative of their group, and thus, may affect the quality of the analysis. The overall similarity among samples were assessed by the Euclidean distance between samples. This method was used to examine which samples are similar/different to each other and if they fit to the expectation from the experiment design. The shorter the distance, the more closely related the samples are. Samples were then clustered by using the distance. A principal component analysis was also performed to reveal the similarity between samples based on the distance matrix. After extraction of gene hit counts, the gene hit counts table was used for downstream differential expression analysis. Using DESeq2, a comparison of gene expression between Apelin transduced LEC against non-transduced LEC was performed. The Wald test was used to generate p-values and log2 fold changes. […] The global transcriptional change across the two groups compared was visualized by a volcano plot. Each data point in the volcano plot represents a gene. The log2 fold change of each gene is represented on the x-axis and the log10 of its adjusted p-value is on the y-axis.

B1: APELIN: bioactive peptide apelin, endogenous ligand of APJ; applied to HDLEC as conditioned media from LV-Apelin transduced NIH3T3 or by transduction (protein, listed as Homo sapiens)
chain: MNLRLCVQALLLLWLSLTAVCGGSLMPLPDGNGLEDGNVRHLVQPRGSRNGPGPWQGGRRKFRRQRPRLSHKGPMPF
- GO analysis of down regulated genes: no biological process was significantly affected
- GO analysis for biological process, upregulated genes (FDR<0.05): enriched (FDR<0.05) for terms related to extracellular matrix (ECM) remodelling and signalisation
- number of genes up regulated by both apelin and VEGF-C (HDLEC, conditioned media): 43 genes
- number of genes up regulated by both apelin and apelin+VEGF-C (HDLEC, conditioned media): 31 genes
- number of genes up regulated by both apelin, VEGF-C and apelin+VEGF-C (HDLEC, conditioned media): 19 genes
- expression of E2F8 (LEC): stimulated
- expression of genes related to VEGFC maturation (ADAMTS2, CCBE1) (compared to WT): improved
- number of genes deregulated (conditioned media vs control NIH3T3 media, p.adj<0.05 and Log2 fold change<-0.5 or >0.5): 217 genes
- number of genes down regulated (p.adj<0.05, Log2 fold change <-0.5): 123 genes
- number of genes up regulated (p.adj<0.05, Log2 fold change >0.5): 94 genes
